The source of these data is patent US20250076311A1 (Chugai, published 2025).

In assay [1] the target is T1, human FcγRIIaR extracellular domain, His-tagged (human, UniProt P12318 34-217).
T1 construct: also called human FcgRIIaR; FcγRIIa type R
T1 chain: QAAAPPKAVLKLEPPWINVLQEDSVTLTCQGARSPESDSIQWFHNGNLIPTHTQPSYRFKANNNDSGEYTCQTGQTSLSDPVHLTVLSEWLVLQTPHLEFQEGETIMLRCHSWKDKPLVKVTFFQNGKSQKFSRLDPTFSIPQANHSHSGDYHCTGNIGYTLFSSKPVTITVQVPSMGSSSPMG
As to the kind of experiment: SPR (Biacore), 25C, antibody captured, FcgR as analyte. Here is the method: (§1) The kinetic analysis of interactions between these antibodies and FcγR was carried out using BIACORE® T200 or BIACORE® 4000 (GE Healthcare). HBS-EP+ (GE Healthcare) was used as the running buffer, and the measurement temperature was set to 25° C. […] After the measurement, the antibody captured on the chip was washed off by allowing reaction with 10 mM glycine-HCl, pH1.5 and 25 mM NaOH so that the chip was regenerated and used repeatedly. The sensorgrams obtained as measurement results were analyzed by the 1:1 Langmuir binding model using the BIACORE® Evaluation Software to calculate the binding rate constant ka (L/mol/s) and dissociation rate constant kd (1/s), and the dissociation constant KD (mol/L) was calculated from these values. […] Regarding such interactions, KD values were calculated using the following 1:1 binding model described in BIACORE® T100 Software Handbook BR1006-48 Edition AE.
(SPR reads the build-up and loss of mass on a sensor chip optically.)

In assay [2] the target is T2, human FcγRIIIaV extracellular domain, His-tagged (human, UniProt P08637 17-208).
T2 construct: also called human FcgRIIIaV
The description is as above. On the procedure:
as §1
T2 sequence (P08637 17-208 F176V): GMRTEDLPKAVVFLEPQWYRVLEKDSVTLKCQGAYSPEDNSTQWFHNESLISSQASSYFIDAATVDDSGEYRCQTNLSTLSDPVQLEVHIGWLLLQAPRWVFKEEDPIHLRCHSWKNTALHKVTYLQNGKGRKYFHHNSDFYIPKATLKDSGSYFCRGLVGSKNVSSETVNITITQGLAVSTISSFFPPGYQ

Assay [3] addresses T3, cynomolgus monkey FcγRIIa2 extracellular domain, His-tagged (cynomolgus monkey).
T3 construct: also called cyno FcgRIIa2
T3 chain: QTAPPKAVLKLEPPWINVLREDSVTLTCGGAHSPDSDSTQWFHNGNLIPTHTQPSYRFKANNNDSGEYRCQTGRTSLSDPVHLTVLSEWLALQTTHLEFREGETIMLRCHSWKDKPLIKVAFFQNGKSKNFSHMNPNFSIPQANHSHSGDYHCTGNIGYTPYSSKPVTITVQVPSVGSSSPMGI
The description is as above. Here is the method: as §1

For assay [4], the target named is T4, cynomolgus monkey FcγRIIb extracellular domain, His-tagged (cynomolgus monkey).
T4 construct: also called cyno FcgRIIb
T4 chain: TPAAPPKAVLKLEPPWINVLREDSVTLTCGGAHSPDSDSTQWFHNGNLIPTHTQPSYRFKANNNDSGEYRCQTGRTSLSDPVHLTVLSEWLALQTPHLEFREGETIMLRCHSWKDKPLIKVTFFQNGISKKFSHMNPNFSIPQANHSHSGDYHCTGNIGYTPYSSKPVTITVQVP
The experiment in a line: SPR (Biacore), 25C, FcgR bound per antibody captured. On the procedure:
(§2) In the next step, cross-reactivity of these substitutions to cynoFcγRs was evaluated.
(§3) The value of the amount of FcγR binding was obtained by dividing the amount of FcγR bound by the amount of each antibody captured.

Assay [5] has as its target T5, cynomolgus monkey FcγRIIa3 extracellular domain, His-tagged (cynomolgus monkey).
T5 construct: also called cyno FcgRIIa3
T5 chain: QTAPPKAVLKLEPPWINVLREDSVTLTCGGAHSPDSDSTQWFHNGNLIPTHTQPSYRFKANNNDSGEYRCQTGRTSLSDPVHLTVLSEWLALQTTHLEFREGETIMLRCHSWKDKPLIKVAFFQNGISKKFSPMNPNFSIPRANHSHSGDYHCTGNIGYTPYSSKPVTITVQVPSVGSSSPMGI
The assay is described as above. Here is the method: as §2, §3

Assay [6] addresses T6, cynomolgus monkey FcγRIIa1 extracellular domain, His-tagged (cynomolgus monkey).
T6 construct: also called cyno FcgRIIa1
T6 chain: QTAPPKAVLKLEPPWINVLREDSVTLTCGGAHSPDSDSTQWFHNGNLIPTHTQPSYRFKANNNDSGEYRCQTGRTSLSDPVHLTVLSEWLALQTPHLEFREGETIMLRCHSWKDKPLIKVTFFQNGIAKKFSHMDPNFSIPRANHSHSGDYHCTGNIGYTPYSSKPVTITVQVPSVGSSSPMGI
The description is as above. On the procedure:
as §2, §3

The target in assay [7] is T7, cynomolgus monkey FcγRIIIaS extracellular domain, His-tagged (cynomolgus monkey, UniProt Q8SPW2 21-206 at identity 1.00)).
T7 construct: also called cyno FcgRIIIaS
T7 chain: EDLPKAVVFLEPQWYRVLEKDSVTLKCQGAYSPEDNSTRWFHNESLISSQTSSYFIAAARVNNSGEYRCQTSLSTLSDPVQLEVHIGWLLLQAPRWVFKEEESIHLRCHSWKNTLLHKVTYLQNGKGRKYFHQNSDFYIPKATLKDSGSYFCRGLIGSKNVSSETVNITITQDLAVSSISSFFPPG
Described as above. Here is the method:
as §2, §3

Assay [8] concerns the target T3, cynomolgus monkey FcγRIIa2 …. The description is as above. On the procedure: as §2, §3
The target of assay [9] is T8, human FcγRIIb extracellular domain, His-tagged (human, UniProt P31994 43-217).
T8 construct: also called human FcgRIIb
T8 sequence: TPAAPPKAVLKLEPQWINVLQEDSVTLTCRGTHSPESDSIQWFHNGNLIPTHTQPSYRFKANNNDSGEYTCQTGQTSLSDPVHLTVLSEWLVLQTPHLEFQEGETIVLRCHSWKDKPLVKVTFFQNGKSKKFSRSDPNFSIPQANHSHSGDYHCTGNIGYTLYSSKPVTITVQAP
The experiment in a line: SPR (Biacore), 25C, KD of SG1 / KD of variant.

Assay [10] deals with T4, cynomolgus monkey FcγRIIb extracellular …. The experiment in a line: SPR (Biacore), 25C, KD of SG1 / KD of variant.
Assay [11] concerns the target T5, cynomolgus monkey FcγRIIa3 …. The experiment in a line: SPR (Biacore), 25C, KD of SG1 / KD of variant.
For assay [12], the target named is T1, human FcγRIIaR extracellular domain, …. The experiment in a line: SPR (Biacore), 25C, KD of SG1 / KD of variant.
Assay [13] concerns the target T6, cynomolgus monkey FcγRIIa1 …. As to the kind of experiment: SPR (Biacore), 25C, KD of SG1 / KD of variant.
The target of assay [14] is T2, human FcγRIIIaV extracellular domain, …. As to the kind of experiment: SPR (Biacore), 25C, KD of SG1 / KD of variant.
Assay [15] concerns the target T9, human FcγRIIaH extracellular domain, His-tagged (human, UniProt P12318 34-217).
T9 construct: also called human FcgRIIaH; FcγRIIa type H
T9 sequence: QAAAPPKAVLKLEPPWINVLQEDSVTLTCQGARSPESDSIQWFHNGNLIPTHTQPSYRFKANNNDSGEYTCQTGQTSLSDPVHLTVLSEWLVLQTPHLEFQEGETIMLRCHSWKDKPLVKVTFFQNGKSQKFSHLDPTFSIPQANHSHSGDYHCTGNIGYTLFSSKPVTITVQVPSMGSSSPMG
As to the kind of experiment: SPR (Biacore), 25C, KD of SG1 / KD of variant.

The target in assay [16] is T7, cynomolgus monkey FcγRIIIaS …. The experiment in a line: SPR (Biacore), 25C, KD of SG1 / KD of variant.
The target of assay [17] is T3, cynomolgus monkey FcγRIIa2 …. The experiment in a line: SPR (Biacore), 25C, KD of SG1 / KD of variant.
In assay [18] the target is T10, human FcγRIIIaV extracellular domain, His-tagged (human, UniProt P08637 17-208).
T10 construct: also called human FcγRIIIa (V158 allotype); FcgRIIIaV; not shown: His-tag added to the C-terminus
As to the kind of experiment: SPR (BIACORE), antibody captured on chip, FcγR as analyte, 25 C; KD of SG1 divided by KD of the variant. On the procedure:
as §1
T10 sequence (P08637 17-208 F176V): as the sequence (P08637 17-208 F176V) above

The target in assay [19] is T11, cynomolgus monkey FcγRIIa1 extracellular domain with C-terminal His-tag (cynomolgus monkey).
T11 construct: also called cyno FcgRIIa1; cynoFcγRIIa1
T11 chain: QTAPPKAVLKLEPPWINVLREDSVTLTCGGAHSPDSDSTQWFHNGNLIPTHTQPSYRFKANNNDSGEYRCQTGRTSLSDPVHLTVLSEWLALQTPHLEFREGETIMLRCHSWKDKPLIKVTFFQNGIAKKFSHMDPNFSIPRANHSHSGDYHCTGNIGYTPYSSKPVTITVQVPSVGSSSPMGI
The experiment in a line: SPR (Biacore), KD of SG1 divided by KD of variant.

B1: MS1032LO06-SG1 (antibody, human IgG1, kappa)
heavy: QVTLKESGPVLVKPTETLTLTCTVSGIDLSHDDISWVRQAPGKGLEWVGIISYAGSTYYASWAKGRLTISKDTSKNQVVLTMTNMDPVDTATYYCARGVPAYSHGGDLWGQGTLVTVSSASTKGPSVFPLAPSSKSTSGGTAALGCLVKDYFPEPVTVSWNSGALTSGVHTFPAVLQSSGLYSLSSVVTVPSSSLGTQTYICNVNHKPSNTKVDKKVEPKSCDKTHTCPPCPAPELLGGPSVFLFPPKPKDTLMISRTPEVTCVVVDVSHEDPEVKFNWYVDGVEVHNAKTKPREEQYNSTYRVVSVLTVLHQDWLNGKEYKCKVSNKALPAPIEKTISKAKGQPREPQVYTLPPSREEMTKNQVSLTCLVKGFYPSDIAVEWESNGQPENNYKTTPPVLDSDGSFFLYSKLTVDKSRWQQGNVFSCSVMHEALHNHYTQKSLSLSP
light: DIVMTQSPATLSLSPGERATLSCTSSQSVYHANWLSWFQQKPGQPPKLLIYWASTLAYGVPSRFSGSGSGTDFTLTISSLQPEDAATYYCAGGYGGGRYAFGQGTKVEIKRTVAAPSVFIFPPSDEQLKSGTASVVCLLNNFYPREAKVQWKVDNALQSGNSQESVTEQDSKDSTYSLSSTLTLSKADYEKHKVYACEVTHQGLSSPVTKSFNRGEC
notes: Heavy constant region SG1, light constant region SK1; also called M103205H795-SG1
For the molecule B1, the equilibrium dissociation constant (Kd) was determined as 14 µM in [1], 1.2 µM in assay [2] and 52 µM in [3]. For the same molecule, the “Binding to cynoFcgRs (SG1 = 100)” value in assay [4], in assay [5], in assay [6], in assay [7] and in assay [8] was 100 throughout. The “KD fold (SG1 = 1)” value in [9], in [10], in assay [11], in [12], in assay [13] and in assay [14] was 1 in each case. The “KD fold (SG1 = 1)” value in assay [15], in [16] and in assay [17] was 1 in each case.

B2: M103205H795-MY318/M103202L889-SK1 (antibody, human IgG1, kappa, name in EU numbering)
heavy: QVTLKESGPVLVKPTETLTLTCTVSGIDLSHDDISWVRQAPGKGLEWVGIISYAGSTYYASWAKGRLTISKDTSKNQVVLTMTNMDPVDTATYYCARGVPAYSHGGDLWGQGTLVTVSSASTKGPSVFPLAPSSKSTSGGTAALGCLVKDYFPEPVTVSWNSGALTSGVHTFPAVLQSSGLYSLSSVVTVPSSSLGTQTYICNVNHKPSNTKVDKKVEPKSCDKTHTCPPCPAPELLLGPSVFLFPPKPKDTLMISRTPEVTCVVVDVSEEDPEVKFNWYVDGVEVHNAKTKPREEQYNSTYRVVSVLTVLHQDWLNGKEYKCKVSNTALPKPIEKTISKAKGQPREPQVYTLPPSREEMTKNQVSLTCLVKGFYPSDIAVEWESNGQPENNYKTTPMVLDSDGSFFLYSKLTVDKSRWQQGNVFSCSVMHEALHNHYTQKSLSLSP
light: DIVMTQSPATLSLSPGERATLSCTSSQSVYHANWLSWFQQKPGQPPKLLIYWASTLAYGVPSRFSGSGSGTDFTLTISSLQPEDAATYYCAGGYGGGRYAFGQGTKVEIKRTVAAPSVFIFPPSDEQLKSGTASVVCLLNNFYPREAKVQWKVDNALQSGNSQESVTEQDSKDSTYSLSSTLTLSKADYEKHKVYACEVTHQGLSSPVTKSFNRGEC
notes: expressed with M103202L889-SK1 as light chain
In the case of B2, the “KD fold for humanFcgRs (SG1 = 1)” value in assay [18] was found to be 0.09 fold.

B3: M103205H795-MY388 (second row so labelled: G236T/S239I/H268D/A330K) / M103202L889-SK1 (antibody, human IgG1, kappa, name in EU numbering)
heavy: QVTLKESGPVLVKPTETLTLTCTVSGIDLSHDDISWVRQAPGKGLEWVGIISYAGSTYYASWAKGRLTISKDTSKNQVVLTMTNMDPVDTATYYCARGVPAYSHGGDLWGQGTLVTVSSASTKGPSVFPLAPSSKSTSGGTAALGCLVKDYFPEPVTVSWNSGALTSGVHTFPAVLQSSGLYSLSSVVTVPSSSLGTQTYICNVNHKPSNTKVDKKVEPKSCDKTHTCPPCPAPELLTGPIVFLFPPKPKDTLMISRTPEVTCVVVDVSDEDPEVKFNWYVDGVEVHNAKTKPREEQYNSTYRVVSVLTVLHQDWLNGKEYKCKVSNKALPKPIEKTISKAKGQPREPQVYTLPPSREEMTKNQVSLTCLVKGFYPSDIAVEWESNGQPENNYKTTPPVLDSDGSFFLYSKLTVDKSRWQQGNVFSCSVMHEALHNHYTQKSLSLSP
light: DIVMTQSPATLSLSPGERATLSCTSSQSVYHANWLSWFQQKPGQPPKLLIYWASTLAYGVPSRFSGSGSGTDFTLTISSLQPEDAATYYCAGGYGGGRYAFGQGTKVEIKRTVAAPSVFIFPPSDEQLKSGTASVVCLLNNFYPREAKVQWKVDNALQSGNSQESVTEQDSKDSTYSLSSTLTLSKADYEKHKVYACEVTHQGLSSPVTKSFNRGEC
notes: The label MY388 is printed for two different variants; also called MY388 (second of two rows with this label)
In the case of B3, the “KD fold (SG1 = 1)” value in assay [19] was 1.9 fold.

The term Kd denotes the constant that tells how readily two partners part at equilibrium.
